# According to patent US20190010203A1 (ADEPTHERA, published 2019):
# Non-standard residues stand in square brackets, D forms with d. No end group written: not given here. *: point of attachment. Palmitoyl = CCCCCCCCCCCCCCCC(=O)*; AEEEA = NCCOCCOCCOCC(=O)O
# Legend:
# Assay in all cases: cell-based or functional assay
# [1] = target: T1, CLR/RAMP1 receptor (UniProt Q16602 23-461; O60894 27-148, limits assumed)
# [2] = target: T2, CLR/RAMP2 receptor (UniProt Q16602 23-461; O60895 43-175, limits assumed)
# T2 sequence (Q16602 23-461 limits assumed, chain 1 of 2): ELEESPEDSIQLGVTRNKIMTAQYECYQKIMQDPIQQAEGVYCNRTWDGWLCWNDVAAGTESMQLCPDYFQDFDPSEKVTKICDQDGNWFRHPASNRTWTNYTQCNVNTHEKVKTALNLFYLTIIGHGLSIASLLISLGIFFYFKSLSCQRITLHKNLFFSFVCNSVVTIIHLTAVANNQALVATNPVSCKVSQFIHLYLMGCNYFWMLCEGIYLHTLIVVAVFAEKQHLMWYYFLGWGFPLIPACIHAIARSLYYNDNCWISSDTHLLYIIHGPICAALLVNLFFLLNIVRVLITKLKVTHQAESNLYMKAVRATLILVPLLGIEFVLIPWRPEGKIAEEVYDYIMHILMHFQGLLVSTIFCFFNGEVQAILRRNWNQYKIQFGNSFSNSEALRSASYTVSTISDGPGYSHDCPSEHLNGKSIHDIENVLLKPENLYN
# T2 sequence (O60895 43-175 limits assumed, chain 2 of 2): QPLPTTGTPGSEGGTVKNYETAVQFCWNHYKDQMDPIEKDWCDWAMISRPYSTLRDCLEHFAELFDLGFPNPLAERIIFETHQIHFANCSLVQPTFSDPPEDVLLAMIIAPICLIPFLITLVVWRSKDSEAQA
# [3] = target: T1, CLR/RAMP1 receptor; remark: listed apart in the source
# [4] = target: T2, CLR/RAMP2 receptor; remark: listed apart in the source
# T1 sequence (Q16602 23-461 limits assumed, chain 1 of 2): as the sequence (Q16602 23-461 limits assumed, chain 1 of 2) above
# T1 sequence (O60894 27-148 limits assumed, chain 2 of 2): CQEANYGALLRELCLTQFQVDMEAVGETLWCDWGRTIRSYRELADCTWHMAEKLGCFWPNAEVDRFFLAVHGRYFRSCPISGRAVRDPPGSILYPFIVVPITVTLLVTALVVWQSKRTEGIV
"EC50 (nM), CLR/RAMP1 cAMP assay [1] [nM]","EC50 (nM), CLR/RAMP2 arrestin assay [2] [nM]",further results,Binder
31,18,–,Ac-KGCRFGTCTVQKLAHQIYQFTDKDKDNSAPVDPSSPHSY-NH2 (ends and bridges not checked) [SEQ ID NO: 59]
0.2,0.5,–,Ac-TK(Palmitoyl)KTLRTGCRFGTCTVQKLAHQIYQFTDKDKDNSAPVDPSSPHSY-NH2 (ends and bridges not checked) [SEQ ID NO: 39]
–,0.4,"Max Activity % of positive control, CLR/RAMP1 cAMP assay [1]: 85 % of positive control; Max Activity % of positive control, CLR/RAMP2 arrestin assay [2]: 64 % of positive control",miniPEG-K(Palmitoyl)GCRFGTCTVQKLAHQIYQFTDKDKSAPVDPSSPHSY-NH2 (ends and bridges not checked) [SEQ ID NO: 47]
0.8,0.9,–,Palmitoyl-KGCRFGTCTVQKLAHQIYQFTPAGRQDSAPVDPSSPHSY-NH2 (ends and bridges not checked) [SEQ ID NO: 31]
–,0.3,–,[AEEEA]K(Palmitoyl)GCRFGTCTVQKLAHQIYQFTDKDKQDSAPVDPSSPHSY-NH2 (ends and bridges not checked) [SEQ ID NO: 51]
0.5,0.2,"Max Activity % of positive control, CLR/RAMP1 cAMP assay [1]: 39 % of positive control; Max Activity % of positive control, CLR/RAMP2 arrestin assay [2]: 30 % of positive control",[AEEEA]K(Palmitoyl)CRFGTCTVQKLAHQIYQFTDKDKDNSAPVDPSSPHSY-NH2 (ends and bridges not checked) [SEQ ID NO: 43]
–,–,"Max Activity % of positive control, CLR/RAMP1 cAMP assay [1]: 2 % of positive control",[AEEEA]K(Palmitoyl)GCRFGTCTVQKLAHLWQLMGPAGRQDSAPVDPSSPHSY-NH2 (ends and bridges not checked) [SEQ ID NO: 62]
–,–,"Max Activity % of positive control, CLR/RAMP1 cAMP assay [1]: 65 % of positive control; Max Activity % of positive control, CLR/RAMP2 arrestin assay [2]: 87 % of positive control",miniPEG-K(Palmitoyl)GCRFGTCTVQKLAHQIYQFTDKDKDNVAPVDPSSPHSY-NH2 (cysteine pairing not given here) [SEQ ID NO: 50]
0.5,0.7,–,Palmitoyl-KTKKTLRTGCRFGTCTVQKLAHQIYQFTDKDKDNSAPVDPSSPHSY-NH2 (not fully specified; printed as Pal-KTKKTLRTGCRFGTCTVQKLAHQIYQFTDKDKDNSAPVDPSSPHSY-NH2; ends and bridges not checked) [SEQ ID NO: 38]
0.4,0.6,–,Palmitoyl-KGCRFGTCTVQKLAHQIYQFTDKDKDNSAPVDPSSPHSY-NH2 (ends and bridges not checked) [SEQ ID NO: 30]
234,–,–,Ac-K(Palmitoyl)GCRFGTCTVQKLAHQIYQFTDKDKDNVAPRSKSSPHSY-NH2 (ends and bridges not checked) [SEQ ID NO: 65]
–,0.2,–,miniPEG-TK(Palmitoyl)KTLRTGCRFGTCTVQKLAHQIYQFTDKDKDNVAPVDPSSPHSY-NH2 (cysteine pairing not given here) [SEQ ID NO: 42]
0.4,0.9,–,Ac-TK(Palmitoyl)KTLRTGCRFGTCTVQKLAHQIYQFTDKDKDNVAPVDPSSPHSY-NH2 (ends and bridges not checked) [SEQ ID NO: 41]
–,–,"Max Activity % of positive control, CLR/RAMP1 cAMP assay [1]: 67 % of positive control; Max Activity % of positive control, CLR/RAMP2 arrestin assay [2]: 82 % of positive control",miniPEG-K(Palmitoyl)GCRFGTCTVQKLAHQIYQFTDKDKDNVDPSSPHSY-NH2 (cysteine pairing not given here) [SEQ ID NO: 94]
0.3,0.4,–,Ac-K(Palmitoyl)GCRFGTCTVQKLAHQIYQFTPAGRQDSAPVDPSSPHSY-NH2 (ends and bridges not checked) [SEQ ID NO: 33]
43,6.4,–,Palmitoyl-KGCRFGTCTVQKLAHQIYQFTDKDAPVDPSSPHSY-NH2 (ends and bridges not checked) [SEQ ID NO: 110]
0.1,0.2,–,Palmitoyl-KCRFGTCTVQKLAHQIYQFTDKDKDNSAPVDPSSPHSY-NH2 (ends and bridges not checked) [SEQ ID NO: 44]

"EC50 (nM), CLR/RAMP1 cAMP assay [1] [nM]","EC50 (nM), CLR/RAMP2 arrestin assay [2] [nM]",further results,Binder
771,17,–,Ac-KGCRFGTCTVQKLAHQIYQFTDKDSAPVDPSSPHSY-NH2 (ends and bridges not checked) [SEQ ID NO: 93]
–,–,"Max Activity % of positive control, CLR/RAMP1 cAMP assay [1]: 69 % of positive control; Max Activity % of positive control, CLR/RAMP2 arrestin assay [2]: 68 % of positive control",miniPEG-K(Palmitoyl)TKKTLRTGCRFGTCTVQKLAHQIYQFTDKDKDNVAPRSKISPQGY-NH2 (ends and bridges not checked) [SEQ ID NO: 70]
0.2,0.7,–,Palmitoyl-KGCRFGTCTVQKLAHQIYQFTDKDKDNVAPVDPSSPHSY-NH2 (ends and bridges not checked) [SEQ ID NO: 34]
909,149,–,Ac-VGCRFGTCTVQKLAHQIYQFTPAGRQDSAPVDPSSPHSY-NH2 (ends and bridges not checked) [SEQ ID NO: 57]
–,–,"IC50 (nM), CGRP-stimulated CLR/RAMP1 cAMP assay [3]: 9.9 nM; IC50 (nM), ADM-stimulated CLR/RAMP2 arrestin assay [4]: 47 nM",Palmitoyl-TVQKLAHQIYQFTDKDKDNSAPVDPSSPHSY-NH2 [SEQ ID NO: 77]
2,1,–,Palmitoyl-KTKKTLRTGCRFGTCTVQKLAHQIYQFTDKDKDNVAPVDPSSPHSY-NH2 (not fully specified; printed as Pal-KTKKTLRTGCRFGTCTVQKLAHQIYQFTDKDKDNVAPVDPSSPHSY-NH2; ends and bridges not checked) [SEQ ID NO: 40]
224,17,–,Ac-VGCRFGTCTVQKLAHQIYQFTDKDKDNSAPVDPSSPHSY-NH2 (ends and bridges not checked) [SEQ ID NO: 56]
–,–,"Max Activity % of positive control, CLR/RAMP1 cAMP assay [1]: 69 % of positive control; Max Activity % of positive control, CLR/RAMP2 arrestin assay [2]: 102 % of positive control","Ac-FGCRFGTCTVQKLAHQIYQFTDKDKDNVAPRSKISPQGY-NH2 (cysteine pairing not given here) [human ADM, SEQ ID NO: 53]"
16,3,–,Ac-KGCRFGTCTVQKLAHQIYQFTDKDKDNVAPVDPSSPHSY-NH2 (ends and bridges not checked) [SEQ ID NO: 60]
34,49,–,"KGCRFGTCTVQKLAHQIYQFTDKDKDNVAPRSKISPQGY (N-terminal palmitoyl (Pal); palmitoyl on Lys 1 side chain, K(Pal); C-terminal amide) [SEQ ID NO: 73]"
–,–,"IC50 (nM), CGRP-stimulated CLR/RAMP1 cAMP assay [3]: 7 nM; IC50 (nM), ADM-stimulated CLR/RAMP2 arrestin assay [4]: 7.1 nM",Palmitoyl-KVQKLAHQIYQFTDKSAPVDPSSPHSY-NH2 [SEQ ID NO: 125]
0.6,0.9,–,Palmitoyl-KGCRFGTCTVQKLAHQIYQFTDKGRQDSAPVDPSSPHSY-NH2 (ends and bridges not checked) [SEQ ID NO: 36]
–,0.5,"Max Activity % of positive control, CLR/RAMP2 arrestin assay [2]: 104 % of positive control",[AEEEA]K(Palmitoyl)GCRFGTCTVQKLAHQIYQFTDKDKDSAPVDPSSPHSY-NH2 (ends and bridges not checked) [SEQ ID NO: 46]
0.1,0.3,–,Palmitoyl-GCRFGTCTVQKLAHQIYQFTDKDKDNSAPVDPSSPHSY-NH2 (ends and bridges not checked) [SEQ ID NO: 45]
–,–,"IC50 (nM), CGRP-stimulated CLR/RAMP1 cAMP assay [3]: 1120 nM; IC50 (nM), ADM-stimulated CLR/RAMP2 arrestin assay [4]: 289 nM",Ac-TVQKLAHQIYQFTDKDKDNSAPVDPSSPHSY-NH2 [SEQ ID NO: 76]
0.8,1,–,Palmitoyl-KGCRFGTCTVQKLAHQIYQFTDKDKQDSAPVDPSSPHSY-NH2 (ends and bridges not checked) [SEQ ID NO: 35]
